Results taken from US20100028352A1.

Target: Gi-GPCRs on endothelial cells
Test: cell-based or functional assay

inhibition of forskolin-stimulated cAMP production, 25 and 100 nM uncleaved GlyRS: 10%
Substance: Full-length recombinant human GlyRS (from UniProt P41250 55-739) (enzyme)
